Measurements from patent publication US20200040059A1.

The substances below were run against PD-1 (human) (assay: cell-based or functional assay).

Sequence of Full length ECD of PD-L2 (ligand) (Q9BQ51 20-220): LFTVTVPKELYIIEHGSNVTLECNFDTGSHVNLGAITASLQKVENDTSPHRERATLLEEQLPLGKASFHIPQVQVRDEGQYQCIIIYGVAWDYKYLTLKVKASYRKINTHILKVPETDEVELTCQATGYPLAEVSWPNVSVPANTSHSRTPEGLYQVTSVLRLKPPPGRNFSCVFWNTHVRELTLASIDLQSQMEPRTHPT

| Substance | IFN gamma levels pg/mL, MLR | Fold increase over wildtype PD-L2 IgV-Fc, MLR IFN gamma |
| --- | --- | --- |
| Full length ECD of PD-L2 (ligand) | 1170 pg/mL | – |
| PD-L2 IgV-Fc E44D (Fc fusion) | 1500 pg/mL | 1.09 fold |
| PD-L2 IgV-Fc E44D, S67L, Q72H, Q82R, V89D (Fc fusion) | 1280 pg/mL | 0.93 fold |
| PD-L2 IgV-Fc E44D, V89D, W91R (Fc fusion) | 1560 pg/mL | 1.13 fold |
| PD-L2 IgV-Fc E59G, Q82R (Fc fusion) | 1510 pg/mL | 1.1 fold |
| PD-L2 IgV-Fc F2L, H15Q, D46E, T47A, Q72H, R76G, Q82R, V89D (Fc fusion) | 1170 pg/mL | 0.85 fold |
| PD-L2 IgV-Fc G28V, Q72H, R76G, I86T (Fc fusion) | 1780 pg/mL | 1.29 fold |
| PD-L2 IgV-Fc H15Q, C23S, I86T (Fc fusion) | 1850 pg/mL | 1.34 fold |
| PD-L2 IgV-Fc H15Q, E44D, R76G, I85F (Fc fusion) | 1390 pg/mL | 1.01 fold |
| PD-L2 IgV-Fc H15Q, K65R (Fc fusion) | 1510 pg/mL | 1.1 fold |
| PD-L2 IgV-Fc H15Q, L33H, S67L, R76G, Q82R, V89D (Fc fusion) | 1500 pg/mL | 1.09 fold |
| PD-L2 IgV-Fc H15Q, L33P, T47A, S67L, P71S, V89D (Fc fusion) | 1290 pg/mL | 0.94 fold |
| PD-L2 IgV-Fc H15Q, N18D, T47A, Q72H, V73A, R76G, I86T, V89D (Fc fusion) | 1070 pg/mL | 0.77 fold |
| PD-L2 IgV-Fc H15Q, N24S, T47A, Q72H, R76G, V89D (Fc fusion) | 1090 pg/mL | 0.79 fold |
| PD-L2 IgV-Fc H15Q, N32D, S67L, V89D (Fc fusion) | 1290 pg/mL | 0.93 fold |
| PD-L2 IgV-Fc H15Q, Q72H, Q74R, R76G, I86T (Fc fusion) | 934 pg/mL | 0.68 fold |
| PD-L2 IgV-Fc H15Q, Q72H, V89D (Fc fusion) | 1270 pg/mL | 0.92 fold |
| PD-L2 IgV-Fc H15Q, Q82R, V89D (Fc fusion) | 1080 pg/mL | 0.79 fold |
| PD-L2 IgV-Fc H15Q, R76G, I85F (SEQ ID NO 1500) (Fc fusion) | 1730 pg/mL | 1.25 fold |
| PD-L2 IgV-Fc H15Q, R76G, I85F (SEQ ID NO 1505) (Fc fusion) | 1440 pg/mL | 1.04 fold |
| PD-L2 IgV-Fc H15Q, S39I, E44D, Q72H, V75G, R76G, Q82R, V89D (Fc fusion) | 941 pg/mL | 0.68 fold |
| PD-L2 IgV-Fc H15Q, S39I, I86T (Fc fusion) | 1420 pg/mL | 1.03 fold |
| PD-L2 IgV-Fc H15Q, S39I, S67L, V89D (Fc fusion) | 1230 pg/mL | 0.89 fold |
| PD-L2 IgV-Fc H15Q, S67L, I86T (Fc fusion) | 1030 pg/mL | 0.75 fold |
| PD-L2 IgV-Fc H15Q, S67L, Q72H, R76G, V89D (Fc fusion) | 1060 pg/mL | 0.77 fold |
| PD-L2 IgV-Fc H15Q, S67L, R76G (Fc fusion) | 1430 pg/mL | 1.04 fold |
| PD-L2 IgV-Fc H15Q, S67L, R76G, I85F (Fc fusion) | 1320 pg/mL | 0.96 fold |
